Assay results from patent US20120184020A1, “ENGINEERED MICROORGANISMS WITH ENHANCED FERMENTATION ACTIVITY” (Verdezyne, Inc., priority 2009, published 2012).

B1: R. flavefaciens, FD-1 XI: xylose isomerase of Ruminococcus flavefaciens FD1, ZP_06143883.1, SEQ ID NO: 110 (protein, listed as Ruminococcus flavefaciens)
chain: MEFFKNISKIPYEGKDSTNPLAFKYYNPDEVIDGKKMRDIMKFALSWWHTMGGDGTDMFGCGTADKTWGENDPAARAKAKVDAAFEIMQKLSIDYFCFHDRDLSPEYGSLKDTNAQLDIVTDYIKAKQAETGLKCLWGTAKCFDHPRFMHGAGTSPSADVFAFSAAQIKKALESTVKLGGTGYVFWGGREGYETLLNTNMGLELDNMARLMKMAVEYGRSIGFKGDFYIEPKPKEPTKHQYDFDTATVLGFLRKYGLDKDFKMNIEANHATLAQHTFQHELCVARTNGAFGSIDANQGDPLLGWDTDQFPTNIYDTTMCMYEVIKAGGFTNGGLNFDAKARRGSFTPEDIFYSYIAGMDAFALGYKAASKLIADGRIDSFISDRYASWSEGIGLDIISGKADMAALEKYALEKGEVTDSISSGRQELLESIVNNVIFNL
B2: Psudomonas savastanoi: xylose isomerase from donor organism Psudomonas savastanoi (protein, UniProt Q48J73 1-438, looked up)
Xylose isomerase: MPYFPAVDKVRYEGPDSDSPLAFRHYDADKLILGKPMREHLRMAACYWHTFVWPGADMFGVGTFKRPWQGSGDPLELAIGKAETAFEFFSKLGIDYYSFHDTDVAPEGSSLKEYRNNFAQMIDQLERHQEQTGIKLLWGTANCFSNPRFAAGAASNPDPEVFAYAATQVFSAMNATQRLKGANYVLWGGREGYETLLNTDLRQEREQLGRFMRMVVEHKHKIGFKGDLLIEPKPQEPTKHQYDYDSATVFGFLQQYGLEKEIKVNIEANHATLAGHSFHHEIATAVSLGIFGSIDANRGDPQNGWDTDQFPNSVEEMTLATYEILKAGGFTNGGYNFDSKVRRQSLDEVDLFHGHVAAMDVLALALERAAAMVQNDKLQQFKDQRYAGWQQPFGKSLLAGEFSLESLAKHAFDKDLNPQAVSGRQELLEGVVNRFIYF
B3: Staphylococcus xylosus: xylose isomerase from donor organism Staphylococcus xylosus (protein, UniProt P27157 1-439, looked up)
Xylose isomerase: MSYFDINKVNYEGPKSNNAFSFKYYNPEEKLGNHSMSELLRFSVAYWHTFTADLSDPFGVGVAERDWDSLDEMEKAKARVEAIFEFMEKTRIDYFCFHDVDISPEGASLKESNENLDIIVELIKEKMDQTGKKLLWNTTNNFTHERFVHGAATSSNAEVFAYAAAKVKKSLEIAKKLGSENFVFWGGREGYESLLNTNMKLELDNLATFFKMAKSYADEIGYTGQFLIEPKPKEPTTHQYDTDVATAHAFLQKYDLDKDFKFNIEANHATLAGHTFQHELRYARDNNMLGSVDANQGHPLLGWDTDESTDVYDTTLAMYEILKNGGLAPGGLNFDAKPRRTSFKQEDLILTHIAGMDTFALGLRVAYKMIEDNFFENIMDEKYKSFNEGIGKKIVEGETSLKELEDYAFNINTINNTSDHLEVIKSQINQYILNINNKD
B4: Escherichia coli: xylose isomerase from donor organism Escherichia coli (protein, listed as Escherichia coli)
chain: MQAYFDQLDRVRYEGSKSSNPLAFRHYNPDELVLGKRMEEHLRFAACYWHTFCWNGADMFGVGAFNRPWQQPGEALALAKRKADVAFEFFHKLHVPFYCFHDVDVSPEGASLKEYINNFAQMVDVLAGKQEESGVKLLWGTANCFTNPRYGA
B5: Clostridium phytofermentans: xylose isomerase from donor organism Clostridium phytofermentans (protein)
chain: MKNYFPNVPEVKYEGPNSTNPFAFKYYDANKVVAGKTMKEHCRFALSWWHTLCAGGADPFGVTTMDRTYGNITDPMELAKAKVDAGFELMTKLGIEFFCFHDADIAPEGDTFEESKKNLFEIVDYIKEKMDQTGIKLLWGTANNFSHPRFMH
modifications: Clostridium phytofermentans
B6: Bacillus subtilis: xylose isomerase from donor organism Bacillus subtilis (protein, UniProt P0CI80 1-445, looked up)
Xylose isomerase: MAQSHSSSINYFGSANKVVYEGKDSTNPLAFKYYNPQEVIGGKTLKEHLRFSIAYWHTFTADGTDVFGAATMQRPWDHYKGMDLAKMRVEAAFEMFEKLDAPFFAFHDRDIAPEGSTLKETNQNLDMIMGMIKDYMRNSGVKLLWNTANMFTNPRFVHGAATSCNADVFAYAAAQVKKGLETAKELGAENYVFWGGREGYETLLNTDLKFELDNLARFMHMAVDYAKEIGYTGQFLIEPKPKEPTTHQYDTDAATTIAFLKQYGLDNHFKLNLEANHATLAGHTFEHELRMARVHGLLGSVDANQGHPLLGWDTDEFPTDLYSTTLAMYEILQNGGLGSGGLNFDAKVRRSSFEPDDLIYAHIAGMDAFARGLKVAHKLIEDRVFEDVIQHRYRSFTEGIGLEIIEGRANFHTLEQYALNHKSIKNESGRQEKLKAILNQYILEV
B7: Bacillus licheniformis: xylose isomerase from donor organism Bacillus licheniformis (protein, UniProt P77832 1-448, looked up)
Xylose isomerase: MFFRNIGMIEYEGADSENPYAFKYYNPDEFVGGKTMKEHLRFAVAYWHTFDADGKDPFGDGTMFRAWNRLTHPLDKAKARAEAAFEFFEKLGVPYFCFHDVDIVDEGATLRETFTYLDQMSSFLKEMMETSHVQLLWNTANMFTHPRYVHGAATSCNADVYAYAAAKVKKGLDIAKELGAENYVFWGGREGYETLLNTDMKLELENLSSFYRMAVEYAREIGFDGQFLIEPKPKEPTKHQYDFDAATTIAFLETYGLKDHFKLNLEANHATLAGHTFEHELRVAALHDMLGSIDANQGDLLLGWDTDEFPTDLYSAVLAMYEILKAGGFKTGGINFDAKVRRPSFADEDLFHAHIAGMDTYAVGLKVASRLLEDKALDQVIEERYESYTKGIGLEIKEGRTDLKKLAAYALENDHIENQSGRQERLKATVNRYLLNALREAPAGKETH
B8: Clostridium thermosulfurogenes: xylose isomerase from donor organism Clostridium thermosulfurogenes (protein, UniProt P19148 1-439, looked up)
Xylose isomerase: MNKYFENVSKIKYEGPKSNNPYSFKFYNPEEVIDGKTMEEHLRFSIAYWHTFTADGTDQFGKATMQRPWNHYTDPMDIAKARVEAAFEFFDKINAPYFCFHDRDIAPEGDTLRETNKNLDTIVAMIKDYLKTSKTKVLWGTANLFSNPRFVHGASTSCNADVFAYSAAQVKKALEITKELGGENYVFWGGREGYETLLNTDMEFELDNFARFLHMAVDYAKEIGFEGQFLIEPKPKEPTKHQYDFDVANVLAFLRKYDLDKYFKVNIEANHATLAFHDFQHELRYARINGVLGSIDANTGDMLLGWDTDQFPTDIRMTTLAMYEVIKMGGFDKGGLNFDAKVRRASFEPEDLFLGHIAGMDAFAKGFKVAYKLVKDRVFDKFIEERYASYKDGIGADIVSGKADFRSLEKYALERSQIVNKSGRQELLESILNQYLFAE
B9: Arabidopsis thaliana: xylose isomerase from donor organism Arabidopsis thaliana (protein, UniProt Q9FKK7 1-477, looked up)
Xylose isomerase: MKKVEFFMLLLCFIAASSLVSADPPTCPADLGGKCSDSDDWQGDFFPEIPKIKYEGPSSKNPLAYRWYNAEEEILGKKMKDWFRFSVAFWHTFRGTGGDPFGAATKYWPWEDGTNSVSMAKRRMRANFEFLKKLGVDWWCFHDRDIAPDGTTLEESNKNLDEVIELAKELQKGSKIKPLWGTAQLFLHPRYMHGGATSSEVGVYAYAAAQVKKAMEVTHYLGGENYVFWGGREGYQTLLNTDMGRELDHLARFFEAAVAYKKKIGFKGTLLIEPKPQEPTKHQYDWDAATAANFLRKYGLIDEFKLNIECNHATLSGHTCHHELETARINGLLGNIDANTGDAQTGWDTDQFLTDVGEATMVMMSVIKNGGIAPGGFNFDAKLRRESTDVEDLFIAHISGMDTMARGLRNAVKILEEGSLSELVRKRYATWDSELGKQIEEGKADFEYLEKKAKEFGEPKVSSAKQELAEMIFQSAM

Tested on: not listed separately
Assay: Xylose isomerase activity/kinetic assay on soluble whole cell extract (sorbitol dehydrogenase coupled, NADH, A340)
Assay type: biochemical
Conditions: 500 mM xylose, 100 μg total soluble crude extract, expressed in S. cerevisiae
Experimental: […] Louis, Mo.), and about 2 U sorbitol dehydrogenase (Roche) at about 30° C. […] A Beckman DU-800 was utilized with an Enzyme Mechanism software package (Beckman Coulter, Inc.), and the change in the A340 was monitored for 2-3 minutes.
[…] Louis, Mo.), and 2 U Sorbitol Dehydrogenase (SDH) (Roche, Indianapolis, Ind.) at about 30° C. […] A Beckman DU-800 spectrophotometer was utilized with an Enzyme Mechanism software package (Beckman Coulter, Inc, Brea, Calif.), and the change in the A340 was monitored for 2-3 minutes.
[…] Louis, Mo.), and 2 U sorbitol dehydrogenase (SDH) (Roche, Indianapolis, Ind.) at about 30° C. […] A Beckman DU-800 spectrophotometer was utilized with an Enzyme Mechanism software package (Beckman Coulter, Inc, Brea, Calif.), and the change in the A340 was monitored for 2-3 minutes.
Approximately 20 μg of soluble whole cell extract from each transformed cell line was prepared using Y-PER plus reagent as described above was incubated in a solution containing about 100 mM Tris, pH 7.5, 10 mM MgCl ? 2, 0.15 mM NADH (Sigma, St. Louis, Mo.), and 2 U Sorbitol Dehydrogenase (SDH) (Roche, Indianapolis, Ind.) at about 30° C. […] A Beckman DU-800 spectrophotometer was utilized with an Enzyme Mechanism software package (Beckman Coulter, Inc, Brea, Calif.), and the change in the A340 was monitored for 2-3 minutes.
For B1, the “activity (slope) at saturating xylose (FIG. 25)” value was “highest activity of the candidates tested”.

Same assay, conditions: xylose concentrations between 40 and 500 nM (so in the source)
In the case of B1, the “specific activity relative to native XI control activity” value is reported as “greater than 2 fold”.

Tested on: engineered yeast (S. cerevisiae)
Assay: Heterologous xylose isomerase expression in yeast (active yes/no)
Assay type: cell-based
Conditions: xylose isomerase of donor organism expressed in engineered yeast (S. cerevisiae)
For “Streptomyces diastaticus subsp diastaticus: xylose isomerase from donor organism Streptomyces diastaticus subsp diastaticus”, the “Active? (yes/no)” value was “No”.
With “Bacteroides thetaiotaomicron: xylose isomerase from donor organism Bacteroides thetaiotaomicron” the “Active? (yes/no)” value was “Yes”.
For “Streptomyces rubiginosus: xylose isomerase from donor organism Streptomyces rubiginosus”, the “Active? (yes/no)” value was “No”.
For “Actinoplanes missouriensis: xylose isomerase from donor organism Actinoplanes missouriensis”, the “Active? (yes/no)” value was “No”.
With “Thermus thermophilus: xylose isomerase from donor organism Thermus thermophilus” the “Active? (yes/no)” value was “Yes”.
For B2, the “Active? (yes/no)” value was “No”.
For B3, the “Active? (yes/no)” value was “No”.
In the case of B4, the “Active? (yes/no)” value is reported as “No”.
For B5, the “Active? (yes/no)” value was “Yes”.
In the case of B6, the “Active? (yes/no)” value is reported as “No”.
With B7 the “Active? (yes/no)” value was “No”.
In the case of B8, the “Active? (yes/no)” value is reported as “No”.
With B9 the “Active? (yes/no)” value was “No”.
